Assay results as given in article PMC12151379, “The liprin-α/RIM complex regulates the dynamic assembly of presynaptic active zones via liquid–liquid phase separation” (PLOS Biology, 2025).

Target: the molecule itself
Experiment: SEC-MALS; 100 μl sample (individual proteins or mixture, up to 500 μM) on Superdex 200 Increase 10/300 GL in TBS

B1: liprin-α2_CC2 (residues 259–542) (domain or fragment, human, UniProt O75334 259-542, looked up)
chain: GSIDSTDETSQIVELQELLEKQNYEMAQMKERLAALSSRVGEVEQEAETARKDLIKTEEMNTKYQRDIREAMAQKEDMEERITTLEKRYLSAQRESTSIHDMNDKLENELANKEAILRQMEEKNRQLQERLELAEQKLQQTMRKAETLPEVEAELAQRIAALTKAEERHGNIEERMRHLEGQLEEKNQELQRARQREKMNEEHNKRLSDTVDRLLTESNERLQLHLKERMAALEEKNVLIQESETFRKNLEESLHDKERLAEEIEKLRSELDQLKMRTGSLIEP
notes: liprin-α2, human, GenBank AF034799.1, CC2 region, residues 259–542; Dimeric by SEC-MALS at 500 μM; source: E. coli BL21(DE3), purified (Ni-NTA, SEC)
B1 was tested. Which “stoichiometry N” value did it give?
The value was 2.
